In a protein production outcome set (Wang et al. 2014):

Test: label from the status in PepcDB records
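Also: failed if final PepcDB status was selected cloned or expressed and not failed if soluble or beyond.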

Row | Sequence | protein production
1 | MMPPPAVPPQLPEVPAADLPRVRAPLSTYRRPQRTDFVTPTGGPFFAKQDKALNTIDLKMAHDLKLRGYRVKVAVVDEGVRSDHPLLNVEKKYGGDYMADGTRTYPDPKRQGRHGTSVALVLAGQDTDTYRGGVAPNADLYSANIGTRAGHVSDEAAFHAWNDLLGHGIKIFNNSFATEGPEGEQRVKEDRNEYHSAANKQNTYIGRLDRLVRDGALLIFAAGNGRPSGRAYSEVGSVGRTPRVEPHLQRGLIVVTAVDENGRLETWANRCGQAQQWCLAAPSTAYLPGLDKDNPDSIHVEQGTSLSAPLVTGAAVLVQDRFRWMDNDNLRTTLLTTAQDKGPYGVDPQYGWGVLDVGRAVQGPAQFAFGDFVARVTDTSTFGNDISGAGGLVVDGPGALVLAGSNTYAGRTTIKRGTLDVFGSVTSAVTVEPGGTLTGIGTVGTVTNQGTVVNKEAGLHVKGDYSQTAQGLLVTDIGSLLDVSGRASLAGRLHVDDIRPGYVGGDGKSVPVIKAGAVSGVFATLTRSPGLLLNARLDYRPQAVYLTMRRAERVHAAAQRGADDGRRASVLAVAERLDAAMRELDALPESQRDAAAPAAAIGRIQRVQSRKVLQDNLYSLAGATYANAAAVNTLEQNRWMDRLENHLAQAGGERVAAIAEYRHGQLRWRPDGLQGRQRGNGIMLGLAREVSAGLSLAAALTHSRTHWDESSGAPARDNAAMTTPGVLLGARRAWEDGWFVQGALGYSRYRNQATRHISLGDAGHTVGATARGHVWQADAGLGRQWTLAPGHTLAPRAGLQLTHLRQQGFSESGAQGLGLRAHALTRTVPTLWAQLQSRHAFMLGATPMTAQLQLGVWHDLRARRYAASGGFAGLAQDQGASGYWPVPRTRVQGALGLRAEFAPGLVLGLGYTGQLATHWVDHQLSASLTYRY | failed
2 | MSSIKIECVLPENCRCGESPVWEEVSNSLLFVDIPAKKVCRWDSFTKQVQRVTMDAPVSSVALRQSGGYVATIGTKFCALNWKEQSAVVLATVDNDKKNNRFNDGKVDPAGRYFAGTMAEETAPAVLERHQGALYSLFPDHHVKKYFDQVDISNGLDWSLDHKIFYYIDSLSYSVDAFDYDLQTGQISNRRSVYKLEKEEQIPDGMCIDAEGKLWVACYNGGRVIRLDPVTGKRLQTVKLPVDKTTSCCFGGKNYSEMYVTCARDGMDPEGLLRQPEAGGIFKITGLGVKGIAPYSYAG | failed
3 | MMRCLTITIMFFMFFFLSVIQKCKSETSKSGDYIIYMGAASSDGSTDNDHVELLSSLLQRSGKTPMHRYKHGFSGFAAHLSEDEAHLIAKQPGVLSVFPDQMLQLHTTRSWDFLVQESYQRDTYFTEMNYEQESEMHEGDTIIGFLDSGIWPEAQSFNDRHMGPVPEKWKGTCMRGKKTQPDSFRCNRKLIGARYYNSSFFLDPDYETPRDFLGHGTHVASIAAGQIIANASYYGLASGIMRGGSPSSRIAMYRACSLLGCRGSSILAAFDDAIADGVDVISISMGLWPDNLLEDPLSIGSFHAVERGITVVCSVGNSGPSSQSVFNAAPWMITVAASTIDRGFESNILLGGDENRLIEGFGINIANIDKTQAYPLIHARSAKKIDANEEAARNCAPDTLDQTIVKGKIVVCDSDLDNQVIQWKSDEVKRLGGIGMVLVDDESMDLSFIDPSFLVTIIKPEDGIQIMSYINSTREPIATIMPTRSRTGHMLAPSIPSFSSRGPYLLTRSILKPDIAAPGVNILASWLVGDRNAAPEGKPPPLFNIESGTSMSCPHVSGIAARLKSRYPSWSPAAIRSAIMTTAVQMTNTGSHITTETGEKATPYDFGAGQVTIFGPSSPGLIYETNHMDYLNFLGYYGFTSDQIKKISNRIPQGFACPEQSNRGDISNINYPSISISNFNGKESRRVSRTVTNVASRLIGDEDTVYTVSIDAPEGLLVRVIPRRLHFRKIGDKLSYQVIFSSTTTILKDDAFGSITWSNGMYNVRSPFVVTSKDDNDSER | failed
4 | TPGRGSRVTDQGICPKHQEALKLFCEVDEEAICVVCRESRSHKQHSVVPL | not failed
5 | MSTYYNDHLAAAEKDISSSNFCNLVDASVMLYDEEHRDLLPKKVNSRCQAKTKKQEKESDKRFFDLFPKKRRTSVVTVRNPEQNQQNLHRVSTSSSLLDLNTIPGDSSDPRNELQGLLSSSSSSFLGDYERKTPQNASSSSTLLAEYNTEMANPPNPNSETSLKRKHSDSEPKKAKTPYSWKGREAPEWLVKMMGTMQGSEGPRLIYEKTLTETDVKPVQSRLLMPFNTLIRNDFLTPVELRILLELEDDTDGVGATLVDPWEVKWGVILKKREMKKYSGKGSLNYAIICGWNDIVEANVLEKDDDISIWSFRRGRNGILSFALVLPPPPDMA | failed
6 | MSPCGPLNLSLAGEATTCAAPWVPNTSAVPPSGASPALPIFSMTLGAVSNLLALALLAQAAGRLRRRRSAATFLLFVASLLATDLAGHVIPGALVLRLYTAGRAPAGGACHFLGGCMVFFGLCPLLLGCGMAVERCVGVTRPLLHAARVSVARARLALAAVAAVALAVALLPLARVGRYELQYPGTWCFIGLGPPGGWRQALLAGLFASLGLVALLAALVCNTLSGLALLRARWRRRSRRPPPASGPDSRRRWGAHGPRSASASSASSIASASTFFGGSRSSGSARRARAHDVEMVGQLVGIMVVSCICWSPMLVLVALAVGGWSSTSLQRPLFLAVRLASWNQILDPWVYILLRQAVLRQLLRLLPPRAGAKGGPAGLGLTPSAWEASSLRSSRHSGLSHF | failed
7 | MVWLAVFLAVLGAFFLAIGAQRQGSAVKADTGGLALSSNGFLRLLRNPRWMLGLLFLALGMVMNAVALVSAPLTVVQPIGAIALVITTVVNAKDQGLSINRATVVAISACVTGSALFVLLAVNVTQENHHVNTEDELTIVLLLALAVGIFGTLAVVFRHRMSAFVYILGAGVLFGFVAVLTRIIGKHLLDPNGLFLLNVQWYTLIAIVAAGGLGSWFVQSAYSGGPPDLVIAGLTVIDPMVGIAIGIVILGELRPDVHAVMAIAMAAAATLAIVGVIALSRHHPEVTKRKKDAKAAASRKA | failed
8 | MTEMELKLIKIDTSHYFEKKPGLGERVDYAGRCFYNKFQRVNAMLTSSLIQKHLKREIEIAHNLILRNDKVENIVFDYNGRNPERFYHKAQLLLREEGFMNFTAYNTKTPGHLHLYVHKGHTELGEGERLVKTLSMKLAQGLPKEWKVFPSNEWPKEFNILALPYEVFAKERGSSWAKHL | not failed
9 | MDYFLLHGGGNADRQSGGVHRWLAGAIRELGMLVAETSGHDAFLEQIGAVHPEVVFVRFASSPARIDVPEHDQKLGEGTDAIGEATQLVAQLTRLFPGLPLVAVGSASDGRAMLAALRAGVKDFIDVDGAPAEAVRVVRRLLAERASAEPTRRGRVLAILGARPGVGTTTLASNLATLVRRTSGGDVMLLDLGQPLRDGALYLNVPANFHFVEAVRNLRRFDQVFVQTALSRHPNGLAVLPLPVSLAEMRDISFSEALGLLNRLRTFFDLQVVDLGGFNNIDFIAQLVKAADDVMLVTEQSVGAIVSAAELMQELKKREIDRERLHLILSKFDARLSLDAEQIGVRLEIPSVLTVPSRRRALVVASNQGAMLAETHPIDPYVRAIAGIVQTLGYTQPGERAPGVAGWMAGMRARLGERFRRKPTEPAELDLRTTERNAT | failed
10 | MSLLKNSSYILTLLSLFGFLLTWQRSAFSLFFLIPIFLTLFWEFFLFLKLRKNIIKEATLIKGSLFYRISMGDFYLYIFSFFLAIFGLVSLFLNFLNLEKIDFVFIFIILPLLMIFLKKELHLQFIDNAYNDFRIVVIASFFTALFYAFYGLFFTYNELLNLELFSRKIIAYKSASFVYFDFLSEFLHFVSNLKFFIFSYFGYLGFRALNFIFDFFNFFMFCSLLAFVFNFVLKIKIKIIVLFLCFIMVLGNYFLKEQRNNALKSEQEQILLWMNNFNFLKDNNLSLIQKEKDLFEKDLKDLREIFKKNAFEIGIWWFSKEKEDLEKRINESLK | failed
11 | MNQLIFDFAAHDYPSFDKFLGTENAELVYVLRHKHGQFIYVWGEEGAGKSHLLQAWVAQALEAGKNAAYIDAASMPLTDAAFEAEYLAVDQVEKLGNEEQALLFSIFNRFRNSGKGFLLLGSEYTPQQLVIREDLRTRMAYCLVYEVKP | failed
12 | TACKGDYKDAARQVRCGTLVVDETRGDPKSRRITVAVAIVKASEPKAGQPPVVYLHGGPGGSAVGGLPRMLKSKAALEYVAVDQDWIFIDQRGGGQSDPNLDCPGANLTDAGPPSDKDAQAIIACMKAFQAKGVNLSRYNAVEVAKDVQDLRKLLKLPLIDLYGGSYGTRIEAAIQTHAAEGVRAVVQDSPWPPEADWTVGGPAMVSSSIDIVMAKCAKVAECAKRYPDLKAKLAVVAERWLAGPQTINGKTYTADDLGGWLMDASYFTASVLPRDLWKIIEGDVSPVAEFVESRDYYSEGQFMTHLCKEEIPFEARAAVADGTQKDPIARLMVASMQRIHDVCAAIDVGPINKVEQAPVKTAIPTLFLAAEIDPGCPPELTRAAAKGYQGSQVVIVTNATHGVSRSSPCVRKMIRSFFQDPTKPVDRSCLPAADTPMAFMYQ | failed
13 | MLEVVYIVGAFGSPLLTPPTLAVAGFLIAVLMGLEYGVLWVLTGESLNRELILVISNIVYSIAWSITALPFTPIYYTLQPYFSQPLLIYLYLALFIGSILLGVIPAIMYIRKYLQFNKIQKEFKQLELDYKSINQEYSEINTRLNKAKEEINNVMDKINKAKELHETALRDPDLIVTALDKKPEIPEVIRPNVNYVVAGLGGTGTALLEALIDYLVSKNVIKEDGTNPFLFVAFDTNQASIARLRKKYEYTPVGKLLYTFNNFEALTTANIISHNPWLAGLNVDVIQGSGMKRAIGYASYNTVKEAMMEDILRRLSDLIAKTRTNRIFLIVFTALGGGTGSGSFIHFTKDFISRLGRITGDSEPYVRVSGM | failed
14 | MRSHNLFGDMCEAFMTKYVMTELRPKTQTLYKSTFNKYVTPYKNIDIERYKYTDWIAYFDWVKKESSSANAGSVLKRFKAVANWAKARGQIKHSHLIDIPIKLEHHHHHH | failed
15 | QETGISMIGERTNSNGSKAFREAMLSGDWEKCVDIAKQQTRDGAHMLDLCVDYVGRDGTADMATLAALLATSSTLPIMIDSTEPEVIRTGLEHLGGRSIVNSVNFEDGDGPESRYQRIMKLVKQHGAAVVALTIDEEGQARTAEHKVRIAKRLIDDITGSYGLDIKDIVVDCLTFPISTGQEETRRDGIETIEAIRELKKLYPEIHTTLGLSNISFGLNPAARQVLNSVFLNECIEAGLDSAIAHSSKILPMNRIDDRQREVALDMVYDRRTEDYDPLQEFMQLFEGVSAAD | not failed
16 | MELLNVLAAAFGAFALGSVWYMVLAEPWMQDAKVPRGPDGRPEGGMTPGIFAASFVLQLIVAGMMRHVFALSGIDSPGAGIVAGIGVGLFFIAPWITLNNLYGMRPLRLSLIDGGYATLACAVMGLILTLF | failed
17 | MAAMPKPAAFWNDRFANEEYVYGEAPNRFVASAARTWLPEAGEVLLLGAGEGRNAVHLAREGHTVTAVDYAVEGLRKTERLATEAGVEVEAIQADVREWKPARAWDAVVVTFLHLPADERPGLYRLVQRCLRPGGRLVAEWFRPEQRTDGYTSGGPPDPAMMVTADELRGHFAEAGIDHLEAAEPTLDEGMHRGPAATVRLVWCRPSTSLEHHHHHH | not failed
18 | MKAKSLMVVGTTSHAGKSLLAAVICRWLAQQGYRVTPFKGQNMALNAYVTREGGEIGYAQAMQAWAAGIEPEVAMNPILLKPQGNMTSQVILRGQVVGVTRAADYYRDYFERGWQAITEALADLQQRFDWIVCEGAGSPAEINLKHRDLTNMRVATYLGAPTILVADIDRGGVFAHIVGTLMLLEPAERALIQGIVINKFRGQRSLLDSGLQWLEETTGVPVLGVIPWLERHYAAEDSLDLWDPRPQRQGADLKITVIRLPRIANFTDIDPLLAEPSVAVEFLPPHRPLGRPDAVILPGTKTTIADLQVLRETGMAEQLKTYAAQGGTILGICGGWQMLGTAISDPLGLEGCPGTYEGLGLMPLHTQLGPTKCTQQQQTQSLYFNCPEPILGYEIHQGQSEYTGDRQGWHPLFAAPELGLVNRAGTLWGTYLHGLLENGPWRRHWLNGLRSRRQLPPLPTAIPHYGEQRTVALDELTKTVMAHLNLRGICKLC | failed
